Data: patent US20150064134A1

Legend:
Experiment in all cases: cell-based or functional assay
CaMKIV(h) (human) = CaMKIV(h) (human) (UniProt Q16566)
CDK5/p25(h) (human) = CDK5/p25(h) (human) (UniProt Q00535)
GRK7(h) (human) = biological target: T1, GRK7(h) (human) (UniProt Q8WTQ7)
T1 sequence (looked up): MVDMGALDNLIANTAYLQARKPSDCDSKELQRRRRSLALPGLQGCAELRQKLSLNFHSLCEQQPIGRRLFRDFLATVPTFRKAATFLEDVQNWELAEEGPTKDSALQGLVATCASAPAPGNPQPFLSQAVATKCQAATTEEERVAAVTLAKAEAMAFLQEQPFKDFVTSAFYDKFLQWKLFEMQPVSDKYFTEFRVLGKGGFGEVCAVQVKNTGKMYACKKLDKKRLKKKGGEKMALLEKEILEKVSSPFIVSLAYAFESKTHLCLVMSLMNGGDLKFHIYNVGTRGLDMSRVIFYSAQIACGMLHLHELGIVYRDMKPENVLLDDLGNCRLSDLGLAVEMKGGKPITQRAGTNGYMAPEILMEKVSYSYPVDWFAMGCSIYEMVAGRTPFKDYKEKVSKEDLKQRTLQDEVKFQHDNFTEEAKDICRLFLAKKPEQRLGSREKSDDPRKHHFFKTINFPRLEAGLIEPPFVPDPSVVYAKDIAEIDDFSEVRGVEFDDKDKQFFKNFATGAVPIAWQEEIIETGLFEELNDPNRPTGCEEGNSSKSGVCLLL

PAK4(h) (human) = PAK4(h) (human) (UniProt O96013)
Flt1(h) (human) = biological target: T2, Flt1(h) (human) (UniProt P17948)
T2 sequence (looked up): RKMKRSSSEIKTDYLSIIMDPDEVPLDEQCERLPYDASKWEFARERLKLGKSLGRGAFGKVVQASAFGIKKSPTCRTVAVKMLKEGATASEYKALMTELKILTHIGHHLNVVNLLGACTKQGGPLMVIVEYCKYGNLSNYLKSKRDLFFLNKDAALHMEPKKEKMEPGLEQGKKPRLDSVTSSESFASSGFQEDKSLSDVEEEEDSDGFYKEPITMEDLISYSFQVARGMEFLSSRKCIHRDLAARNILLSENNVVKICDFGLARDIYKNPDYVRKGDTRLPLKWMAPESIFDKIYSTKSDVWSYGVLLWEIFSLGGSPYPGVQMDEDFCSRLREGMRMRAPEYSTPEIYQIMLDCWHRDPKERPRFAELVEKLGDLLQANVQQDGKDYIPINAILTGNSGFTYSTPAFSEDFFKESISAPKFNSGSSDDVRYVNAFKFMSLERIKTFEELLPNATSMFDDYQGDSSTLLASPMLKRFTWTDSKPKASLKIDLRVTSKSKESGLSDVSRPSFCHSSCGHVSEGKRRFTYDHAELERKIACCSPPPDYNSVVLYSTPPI

NEK11(h) (human) = biological target: T3, NEK11(h) (human) (UniProt Q8NG66)
T3 sequence (looked up): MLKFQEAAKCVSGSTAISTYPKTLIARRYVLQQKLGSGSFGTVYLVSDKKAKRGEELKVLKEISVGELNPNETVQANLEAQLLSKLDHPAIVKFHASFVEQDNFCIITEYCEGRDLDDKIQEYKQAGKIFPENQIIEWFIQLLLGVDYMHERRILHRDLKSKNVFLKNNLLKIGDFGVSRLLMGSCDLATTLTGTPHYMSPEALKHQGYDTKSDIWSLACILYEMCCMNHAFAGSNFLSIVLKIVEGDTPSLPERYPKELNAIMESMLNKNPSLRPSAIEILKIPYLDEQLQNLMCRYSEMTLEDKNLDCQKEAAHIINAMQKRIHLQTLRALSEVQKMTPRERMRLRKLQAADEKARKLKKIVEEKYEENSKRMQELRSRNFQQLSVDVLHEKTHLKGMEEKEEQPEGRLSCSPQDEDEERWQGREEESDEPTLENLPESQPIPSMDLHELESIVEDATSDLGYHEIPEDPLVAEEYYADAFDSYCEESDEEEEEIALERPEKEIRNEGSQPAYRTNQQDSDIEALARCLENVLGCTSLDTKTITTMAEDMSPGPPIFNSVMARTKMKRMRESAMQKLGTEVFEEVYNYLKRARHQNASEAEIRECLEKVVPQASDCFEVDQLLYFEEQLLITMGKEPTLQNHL

Arg(h) (human) = Arg(h) (human) (UniProt P42684)
CHK1(h) (human) = biological target: T4, CHK1(h) (human) (UniProt O14757)
T4 sequence (looked up): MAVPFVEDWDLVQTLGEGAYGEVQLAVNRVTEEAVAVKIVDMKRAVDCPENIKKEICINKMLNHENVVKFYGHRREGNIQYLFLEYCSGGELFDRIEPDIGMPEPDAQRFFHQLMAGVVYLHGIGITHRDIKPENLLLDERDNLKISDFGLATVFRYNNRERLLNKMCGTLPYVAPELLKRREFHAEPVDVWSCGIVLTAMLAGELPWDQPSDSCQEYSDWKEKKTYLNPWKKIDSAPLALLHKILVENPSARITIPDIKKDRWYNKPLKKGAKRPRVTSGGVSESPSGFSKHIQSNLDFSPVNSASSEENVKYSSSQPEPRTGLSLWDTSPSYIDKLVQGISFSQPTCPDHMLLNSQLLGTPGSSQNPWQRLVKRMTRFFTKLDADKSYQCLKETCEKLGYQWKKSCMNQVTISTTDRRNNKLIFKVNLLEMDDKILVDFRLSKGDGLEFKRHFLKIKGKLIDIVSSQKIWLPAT

Fyn(h) (human) = Fyn(h) (human) (UniProt P06241)

Sequence of Arg(h) (human) (P42684 38-1182 limits assumed): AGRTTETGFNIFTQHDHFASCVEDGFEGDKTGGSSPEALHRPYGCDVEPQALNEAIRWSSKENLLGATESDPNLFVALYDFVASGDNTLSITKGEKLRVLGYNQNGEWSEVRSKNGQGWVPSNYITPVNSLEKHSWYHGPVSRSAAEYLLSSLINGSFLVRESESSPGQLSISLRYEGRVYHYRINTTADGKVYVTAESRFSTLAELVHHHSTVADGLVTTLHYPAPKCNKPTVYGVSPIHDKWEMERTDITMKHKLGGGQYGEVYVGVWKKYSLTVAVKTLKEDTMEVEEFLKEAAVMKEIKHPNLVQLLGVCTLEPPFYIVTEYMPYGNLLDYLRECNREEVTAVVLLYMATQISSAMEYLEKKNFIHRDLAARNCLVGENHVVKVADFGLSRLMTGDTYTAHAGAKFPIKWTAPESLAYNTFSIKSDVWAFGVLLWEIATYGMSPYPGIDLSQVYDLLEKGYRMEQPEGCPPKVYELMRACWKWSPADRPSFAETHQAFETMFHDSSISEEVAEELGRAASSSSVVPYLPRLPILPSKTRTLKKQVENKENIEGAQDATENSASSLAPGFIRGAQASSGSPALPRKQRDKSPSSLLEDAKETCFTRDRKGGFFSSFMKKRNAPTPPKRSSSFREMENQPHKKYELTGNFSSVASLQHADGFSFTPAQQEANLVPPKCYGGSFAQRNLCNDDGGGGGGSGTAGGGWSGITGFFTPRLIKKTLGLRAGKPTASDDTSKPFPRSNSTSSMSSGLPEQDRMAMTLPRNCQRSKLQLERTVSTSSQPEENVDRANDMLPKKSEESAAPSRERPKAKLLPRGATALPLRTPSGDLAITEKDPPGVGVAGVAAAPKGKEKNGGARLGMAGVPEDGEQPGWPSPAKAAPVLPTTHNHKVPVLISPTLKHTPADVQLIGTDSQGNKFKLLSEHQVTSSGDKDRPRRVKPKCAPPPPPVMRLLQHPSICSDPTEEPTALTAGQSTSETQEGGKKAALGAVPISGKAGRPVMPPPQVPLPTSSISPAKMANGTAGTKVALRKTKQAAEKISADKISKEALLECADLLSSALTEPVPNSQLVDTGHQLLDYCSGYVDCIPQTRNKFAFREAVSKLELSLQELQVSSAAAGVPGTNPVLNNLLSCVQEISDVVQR

% activity at 100 µM (CaMKIV(h) (human))	% activity at 100 µM (CDK5/p25(h) (human))	% activity at 100 µM (GRK7(h) (human))	% activity at 100 µM (PAK4(h) (human))	% activity at 100 µM (Flt1(h) (human))	% activity at 100 µM (NEK11(h) (human))	% activity at 100 µM (Arg(h) (human))	% activity at 100 µM (CHK1(h) (human))	% activity at 100 µM (Fyn(h) (human))	Substance
18%	92%	100%	89%	48%	33%	84%	87%	54%	MMI-0400 (peptide)
-1%	66%	93%	86%	27%	2%	22%	65%	83%	MMI-0500 (peptide)
17%	89%	122%	94%	69%	53%	72%	91%	74%	MMI-0300 (peptide)
